We go through three molecules from article PMC8136485, “Were Ancestral Proteins Less Specific?” (Molecular Biology and Evolution, 2021).

Primed or numbered codes have the meaning given here. Ends that are not written are not given here. 5FAM′ = 5-carboxyfluorescein Bounds are passed on as bounds.

In test [1] the target is T1, human S100A5 (human, UniProt P33763 1-92).
T1 sequence: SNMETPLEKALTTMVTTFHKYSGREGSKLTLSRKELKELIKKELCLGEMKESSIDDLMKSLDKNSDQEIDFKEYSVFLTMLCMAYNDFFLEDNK
Put plainly: fluorescence polarisation; displacement of the 5FAM probe peptide by increasing unlabeled peptide; 2.4-4.2 µM protein (monomer) with probe at the same concentration; 50 mM TES, 100 mM NaCl, 0.01% Tween-20, pH 7.4; KD,apparent corrected for the probe. As to conditions: both partners purified. A general note: Polarisation of emitted light reports the rotation of a fluorescent probe.

For test [2], the target named is human S100A6 (human, UniProt P06703 1-90). The description is as above. As to conditions: both partners purified.

B1: probe peptide 5FAM-GFDWRWGMEALTGGGSAE (peptide)
peptide: {5FAM′}-GFDWRWGMEALTGGGSAE
notes: also called fluorescently labeled probe peptide; source: synthetic peptide, bought: Genscript (95% purity)
For the molecule B1, the binding result in test [1] and in test [2] was “binds” in each case.

B2: peptide SRQTTSTHEWVVGGGSAE (peptide)
chain: SRQTTSTHEWVVGGGSAE
modifications: synthetic unlabelled peptide with free N-terminus; C-terminal state not printed. The Methods print the full 18-mer (12-mer + GGGSAE flank, matching the stated library design); the Results form with …
Consider B2, for which the Kd in test [1] is more than 1000 µM.

B3: unlabeled probe peptide GFDWRWGMEALTGGGSAE (peptide)
peptide: GFDWRWGMEALTGGGSAE
notes: the methods name only the nine test peptides and the probe as ordered from Genscript
Consider B3, for which the Kd in test [1] was 2.6 ± 2 µM; in test [2], 12.4 ± 2 µM.
